In general, IC50 refers to the point on the concentration scale where inhibition reaches its midpoint. The term Kd denotes a measure of binding affinity in units of concentration.

Assay [1] deals with neuronal human α7 nicotinic acetylcholine receptor expressed in GH4C1 cells (human) (UniProt P36544). Nature of the assay: radioligand binding.
Assay [2] has as its target muscle-type nicotinic acetylcholine receptor from Torpedo californica electric organ (Torpedo californica (endogenous in electric organ)). Nature of the assay: radioligand binding.
Assay [3] has as its target T1, acetylcholine binding protein from Lymnaea stagnalis (Lymnaea stagnalis, UniProt P58154 20-229).
T1 construct: also called AChBP; L. stagnalis AChBP
Nature of the assay: radioligand binding. The following applies: both partners purified.

The target of assay [4] is T1, acetylcholine binding protein from …. Nature of the assay: radioligand binding. To be noted: both partners purified. This is another data set of the same source.
Assay [5] has the same target. Nature of the assay: MST. To be noted: both partners purified.
For assay [6] the target is unchanged. Put plainly: other fluorescence titration. The following applies: both partners purified.

No end group written: not given here.

T1 sequence (P58154 20-229): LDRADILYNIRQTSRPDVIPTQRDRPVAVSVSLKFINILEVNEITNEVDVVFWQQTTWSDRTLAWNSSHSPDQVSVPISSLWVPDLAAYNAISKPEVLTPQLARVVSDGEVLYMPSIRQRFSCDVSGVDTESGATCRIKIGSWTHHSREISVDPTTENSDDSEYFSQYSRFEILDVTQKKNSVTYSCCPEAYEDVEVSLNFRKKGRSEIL
muscle-type nicotinic acetylcholine receptor from Torpedo californica electric organ (Torpedo californica (endogenous in electric organ)), sequence (P02710 25-461 limits assumed, chain 1 of 4): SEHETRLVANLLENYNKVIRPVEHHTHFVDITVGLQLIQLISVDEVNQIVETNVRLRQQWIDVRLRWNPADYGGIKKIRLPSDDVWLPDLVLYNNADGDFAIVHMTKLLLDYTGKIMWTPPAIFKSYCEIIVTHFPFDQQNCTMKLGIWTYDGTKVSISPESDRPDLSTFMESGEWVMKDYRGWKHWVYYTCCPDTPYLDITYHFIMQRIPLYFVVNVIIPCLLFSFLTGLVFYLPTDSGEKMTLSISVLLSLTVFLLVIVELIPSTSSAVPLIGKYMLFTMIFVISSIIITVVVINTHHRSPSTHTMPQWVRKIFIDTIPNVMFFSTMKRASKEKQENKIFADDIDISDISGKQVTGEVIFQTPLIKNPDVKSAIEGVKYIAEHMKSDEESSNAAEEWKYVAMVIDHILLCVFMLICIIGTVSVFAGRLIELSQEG
muscle-type nicotinic acetylcholine receptor from Torpedo californica electric organ (Torpedo californica (endogenous in electric organ)), sequence (P02712 25-493 limits assumed, chain 2 of 4, further chain): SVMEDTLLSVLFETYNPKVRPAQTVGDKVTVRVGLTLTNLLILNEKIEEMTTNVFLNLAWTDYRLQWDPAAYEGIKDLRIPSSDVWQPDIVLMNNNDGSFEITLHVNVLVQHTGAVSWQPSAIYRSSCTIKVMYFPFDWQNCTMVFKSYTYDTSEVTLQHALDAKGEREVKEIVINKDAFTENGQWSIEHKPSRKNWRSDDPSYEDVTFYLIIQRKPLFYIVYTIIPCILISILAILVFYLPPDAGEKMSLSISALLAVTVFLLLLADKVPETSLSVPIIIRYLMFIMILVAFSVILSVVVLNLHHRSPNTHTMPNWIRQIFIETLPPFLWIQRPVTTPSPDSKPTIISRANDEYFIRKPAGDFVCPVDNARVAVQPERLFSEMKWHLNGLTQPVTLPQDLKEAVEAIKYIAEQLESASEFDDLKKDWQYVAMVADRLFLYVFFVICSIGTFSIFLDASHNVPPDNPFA
muscle-type nicotinic acetylcholine receptor from Torpedo californica electric organ (Torpedo californica (endogenous in electric organ)), sequence (P02714 18-506 limits assumed, chain 3 of 4, further chain): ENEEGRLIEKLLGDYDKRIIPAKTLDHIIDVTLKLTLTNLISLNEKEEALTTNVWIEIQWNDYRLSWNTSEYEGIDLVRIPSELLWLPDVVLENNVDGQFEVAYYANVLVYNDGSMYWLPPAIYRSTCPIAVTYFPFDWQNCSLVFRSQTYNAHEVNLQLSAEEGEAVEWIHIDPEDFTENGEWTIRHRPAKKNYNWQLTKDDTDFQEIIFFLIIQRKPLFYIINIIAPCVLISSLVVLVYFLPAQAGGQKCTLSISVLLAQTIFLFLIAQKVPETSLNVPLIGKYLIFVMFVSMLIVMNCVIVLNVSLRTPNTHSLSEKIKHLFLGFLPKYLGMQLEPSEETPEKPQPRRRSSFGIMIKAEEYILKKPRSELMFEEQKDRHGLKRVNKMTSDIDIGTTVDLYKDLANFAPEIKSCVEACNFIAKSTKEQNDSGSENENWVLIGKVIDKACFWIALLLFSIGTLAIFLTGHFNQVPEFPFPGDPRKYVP
muscle-type nicotinic acetylcholine receptor from Torpedo californica electric organ (Torpedo californica (endogenous in electric organ)), sequence (P02718 22-522 limits assumed, chain 4 of 4, further chain): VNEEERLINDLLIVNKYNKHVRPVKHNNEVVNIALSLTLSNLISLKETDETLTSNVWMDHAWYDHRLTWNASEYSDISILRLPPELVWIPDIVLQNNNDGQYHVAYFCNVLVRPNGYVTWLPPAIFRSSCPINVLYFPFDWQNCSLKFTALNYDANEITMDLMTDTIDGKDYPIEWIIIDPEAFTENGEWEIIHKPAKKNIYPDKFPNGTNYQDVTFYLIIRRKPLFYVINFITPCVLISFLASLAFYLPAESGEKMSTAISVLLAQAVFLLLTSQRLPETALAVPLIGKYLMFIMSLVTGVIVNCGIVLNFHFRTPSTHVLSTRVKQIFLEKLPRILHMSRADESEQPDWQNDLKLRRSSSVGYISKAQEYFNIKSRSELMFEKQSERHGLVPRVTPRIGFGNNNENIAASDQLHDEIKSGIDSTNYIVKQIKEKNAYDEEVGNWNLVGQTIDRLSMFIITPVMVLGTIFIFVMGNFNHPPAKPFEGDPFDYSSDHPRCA
neuronal human α7 nicotinic acetylcholine receptor expressed in GH4C1 cells (human), sequence (P36544 23-502): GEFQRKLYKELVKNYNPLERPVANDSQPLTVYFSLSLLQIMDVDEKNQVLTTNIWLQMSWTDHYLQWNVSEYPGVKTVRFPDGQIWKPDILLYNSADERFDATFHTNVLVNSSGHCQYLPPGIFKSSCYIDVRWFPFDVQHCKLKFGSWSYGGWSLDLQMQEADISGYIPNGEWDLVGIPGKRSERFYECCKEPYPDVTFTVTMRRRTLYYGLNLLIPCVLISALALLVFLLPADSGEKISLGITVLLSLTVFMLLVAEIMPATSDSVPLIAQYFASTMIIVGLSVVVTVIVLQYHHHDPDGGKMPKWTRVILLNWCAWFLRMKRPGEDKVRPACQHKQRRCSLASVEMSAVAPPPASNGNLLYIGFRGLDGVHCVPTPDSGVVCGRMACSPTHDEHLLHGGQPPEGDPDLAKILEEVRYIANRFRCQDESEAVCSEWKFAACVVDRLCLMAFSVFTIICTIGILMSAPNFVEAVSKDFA

Consider “α-cobratoxin (from UniProt P01391 1-71) (natural protein)”, for which the 50% inhibitory concentration (IC50) in assay [1] came to 5.4 nM; in assay [2], 0.57 nM.
“HOBDI-BF2–Aze (fraction 4, label at Lys6) (peptide)”: in assay [2], the concentration for half-maximal inhibition (IC50) was 172 nM.
As for “HOBDI-BF2–α-CbTx (from UniProt P01391 1-71) (natural protein)”, the IC50 was determined as 27 nM in assay [1] and 3.88 nM in assay [2].
In the case of DNWWPKPPHQGPRPPRPRPKP-NH2 (also: one p-HOBDI-BF2 label, position not given here), in assay [2], the IC50 is 210 nM.

B1: ^125I-α-bungarotoxin (natural protein)
chain: IVCHTTATSPISAVTCPPGENLCYRKMWCDAFCSSRGKVVELGCAATCPSKKPYEEVTCCSTDKCNPHPKQRPG
On to B1, for which, in assay [3], the binding result was “binds”.
Molecule DNWWPKPPHQGPRPPRPRPKP-NH2 (also: one p-HOBDI-BF2 label, position not given here) [Fraction 5 of p-HOBDI-BF2-modified azemiopsin (mono-modified product)] yielded a half-inhibitory concentration (IC50) in assay [2] of 128 nM.
The same measure, in the same setting: the figure for DNWWPKPPHQGPRPPRPRPKP-NH2 [azemiopsin] is 7.3 nM.

B2: α-cobratoxin (natural protein)
chain: IRCFITPDITSKDCPNGHVCYTKTWCDAFCSIRGKRVDLGCAATCPTVKTGVDIQCCSTDNCNPFPTRKRP
Turning to B2, the IC50 in assay [4] turned out to be 28 nM.

B3: HOBDI-BF2–α-CbTx (natural protein)
chain: B2 chain
On to B3, for which the Kd in assay [5] is 194 ± 89 nM; in assay [6], about 200 nM. Further, the IC50 in assay [4] was found to be 67 nM.
